In article PMC11999149 one finds Kd, koff and percent of parent data, which are given here for 23 substances.

The target of one assay is membrane truncated soluble E2 (sE2, residues 384-645) of the H77 isolate (Hepatitis C virus genotype 1a, isolate H77) (UniProt P27958). Nature of the assay: SPR.
Settings: not given
For AR3A Fab (reference), the Kd (in general, the equilibrium constant for the complex coming apart) came to 10 nM.

For a further assay, the target named is membrane truncated soluble E2 (sE2, residues 384-645) of the H77 isolate (hepatitis C virus, isolate H77, genotype 1a) (UniProt P27958). Description: SPR.
Settings: not given
As for “A3_9 full-length IgG1 (from UniProt P01857)”, the Kd was 0.0448 nM and the koff (usually the first-order rate constant of dissociation) stood at 1.02e-05 s⁻¹.

Staying with this assay, now noted: Fab.
Take “Fab A2_11 (group II) (from UniProt P01857)”: the Kd was found to be 0.66 nM and the koff came out at 4.41e-05 s⁻¹.

The substance “Fab B1_9 (group II) (from UniProt P01857)” gave a Kd of 2.62 nM and a koff of 0.000299 s⁻¹. For Fab #2 (group I) (from UniProt P01857) the same measures were 0.19 nM and 2.08e-05 s⁻¹. For “Fab A8_9 (group III) (from UniProt P01857)” the same measures were 4.02 nM and 0.000299 s⁻¹. In the same order, the values of Fab A3_9 (from UniProt P01857) are 1.6 nM and 0.000119 s⁻¹. As to “Fab B1_11 (group I) (from UniProt P01857)”, the Kd was found to be 0.485 nM and the koff came to 3.33e-05 s⁻¹.

The next assay concerns the target AR3A full-length IgG (reference). Nature of the assay: ELISA. The note with it: IgG at its EC50; normalized using the signal of HCV1 at EC50. Background: In an ELISA, binding on a coated surface is turned into a signal by an enzyme label.
Consider “detergent-extracted full-length E1/E2 of HCV isolate H77 (genotype 1a) (from UniProt P27958) T625A”, for which the percent of parent turned out to be 12 % WT. The same measure, in the same setting: the result for “detergent-extracted full-length E1/E2 of HCV isolate H77 (genotype 1a) (from UniProt P27958) G436A” reads 22 % WT.

On to “detergent-extracted full-length E1/E2 of HCV isolate H77 (genotype 1a) (from UniProt P27958) W437A”, for which the percent of parent is 4 % WT.

For the substance “detergent-extracted full-length E1/E2 of HCV isolate H77 (genotype 1a) (from UniProt P27958) G440A”, the percent of parent is 10 % WT. The same measure, in the same setting: to “detergent-extracted full-length E1/E2 of HCV isolate H77 (genotype 1a) (from UniProt P27958) T425A” belongs 6 % WT. Same read-out and setting: the result for “detergent-extracted full-length E1/E2 of HCV isolate H77 (genotype 1a) (from UniProt P27958) Y485A” reads 76 % WT; that for “detergent-extracted full-length E1/E2 of HCV isolate H77 (genotype 1a) (from UniProt P27958) K628A”, 63 % WT.

As for “detergent-extracted full-length E1/E2 of HCV isolate H77 (genotype 1a) (from UniProt P27958) L441A”, the percent of parent worked out at 5 % WT. On the same count and under the same terms, to “detergent-extracted full-length E1/E2 of HCV isolate H77 (genotype 1a) (from UniProt P27958) F627A” belongs 68 % WT; to “detergent-extracted full-length E1/E2 of HCV isolate H77 (genotype 1a) (from UniProt P27958) F442A”, 2 % WT; to “detergent-extracted full-length E1/E2 of HCV isolate H77 (genotype 1a) (from UniProt P27958) N428A”, 6 % WT. Take “detergent-extracted full-length E1/E2 of HCV isolate H77 (genotype 1a) (from UniProt P27958) L438A”: the percent of parent came out at 4 % WT. Same read-out and setting: the result for “detergent-extracted full-length E1/E2 of HCV isolate H77 (genotype 1a) (from UniProt P27958) L427A” reads 7 % WT; that for “detergent-extracted full-length E1/E2 of HCV isolate H77 (genotype 1a) (from UniProt P27958) C429A”, 3 % WT. For the substance “detergent-extracted full-length E1/E2 of HCV isolate H77 (genotype 1a) (from UniProt P27958) R630A”, the percent of parent worked out at 84 % WT.

Another assay addresses AR2A. Nature of the assay: ELISA. The conditions noted are these: IgG at its EC50; normalized using the signal of HCV1 at EC50.
As for “detergent-extracted full-length E1/E2 of HCV isolate H77 (genotype 1a) (from UniProt P27958) T625A”, the percent of parent was determined as 28 % WT. Same read-out and setting: to “detergent-extracted full-length E1/E2 of HCV isolate H77 (genotype 1a) (from UniProt P27958) G436A” belongs 123 % WT. Still for that read-out and setting: the result for “detergent-extracted full-length E1/E2 of HCV isolate H77 (genotype 1a) (from UniProt P27958) W437A” reads 98 % WT; that for “detergent-extracted full-length E1/E2 of HCV isolate H77 (genotype 1a) (from UniProt P27958) G440A”, 79 % WT. As for “detergent-extracted full-length E1/E2 of HCV isolate H77 (genotype 1a) (from UniProt P27958) T425A”, the percent of parent turned out to be 77 % WT. For the substance “detergent-extracted full-length E1/E2 of HCV isolate H77 (genotype 1a) (from UniProt P27958) Y485A”, the percent of parent worked out at 94 % WT.

Regarding “detergent-extracted full-length E1/E2 of HCV isolate H77 (genotype 1a) (from UniProt P27958) K628A”, the percent of parent was found to be 24 % WT.

Take “detergent-extracted full-length E1/E2 of HCV isolate H77 (genotype 1a) (from UniProt P27958) L441A”: the percent of parent was determined as 85 % WT.

As for “detergent-extracted full-length E1/E2 of HCV isolate H77 (genotype 1a) (from UniProt P27958) F627A”, the percent of parent came out at 38 % WT. On the same count and under the same terms, to “detergent-extracted full-length E1/E2 of HCV isolate H77 (genotype 1a) (from UniProt P27958) F442A” belongs 71 % WT; to “detergent-extracted full-length E1/E2 of HCV isolate H77 (genotype 1a) (from UniProt P27958) N428A”, 70 % WT. Turning to “detergent-extracted full-length E1/E2 of HCV isolate H77 (genotype 1a) (from UniProt P27958) L438A”, the percent of parent was determined as 88 % WT.

Regarding “detergent-extracted full-length E1/E2 of HCV isolate H77 (genotype 1a) (from UniProt P27958) L427A”, the percent of parent was found to be 67 % WT.

Turning to “detergent-extracted full-length E1/E2 of HCV isolate H77 (genotype 1a) (from UniProt P27958) C429A”, the percent of parent worked out at 43 % WT. Regarding “detergent-extracted full-length E1/E2 of HCV isolate H77 (genotype 1a) (from UniProt P27958) R630A”, the percent of parent came out at 43 % WT.
